Data on 8 molecules can be found in US20260250737A1, “Engineered Luciferases and Luciferin Substrates” (Monod Bio, Inc., priority 2023, published 2026).

In test [1] the test system is MBIO-301-derived split enzyme. In words: Bioluminescence emission of synthetic luciferin substrates with MBIO-301-derived split enzyme (FRB:FKBP, rapamycin). Format: biochemical. Particulars: 1 nM MBIO-557, 1 nM MBIO-563, 10 μM Substrate, 100 nM Rapamycin. Here is the method:
The MBIO-301 enzyme was split into two components: MBIO-557 (Small portion) and MBIO-563 (Large portion). • MBIO-557 has the following sequence: NRVDEVRVYINGSGS (SEQ ID NO:2735) • MBIO-563 has the following sequence:
Bioluminescence emission of synthetic luciferin substrates was measured. The luciferin substrates were incubated with MBIO-301-derived split enzyme. The two-component MBIO-301 split luciferase enzyme was fused to the rapamycin inducible FRB:FKBP system and incubated with its complementary part at a 1:1 ratio. Each of the molecules was incubated with 1×PBS, 0.5% Propylene Glycol, 0.05% Anti-foam, 100 mM Imidazole, 10 mM Ascorbic Acid buffer, 100 nM Rapamycin and emission signal was measured using a Synergy H1 plate reader.
In-well concentrations: 1 nM MBIO-557 (EGFP-FRB-Small portion), 1 nM MBIO-563 (EGFP-FKBP-Large portion), 10 μM Substrate, 100 nM Rapamycin.

Another test deals with LuxSit. Format: biochemical. Particulars: inclusion in assay buffer at pH8. Here is the method: Assay buffers that increase and stabilize the signal output of luciferase assay were tested. Inclusion of Imidazole increased the brightness of LuxSit at pH8.
In-well concentrations were 185 pM of enzyme and 10 μM DTZ. […] In-well concentrations of DTZ was 10 μM.

Another test has as its target T1, MBIO-5338.
T1 chain: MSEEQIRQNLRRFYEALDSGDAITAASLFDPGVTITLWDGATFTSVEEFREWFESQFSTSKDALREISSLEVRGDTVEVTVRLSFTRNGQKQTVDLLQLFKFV
Description: cell-based or functional assay.

In test [2] the target is T2, LgLux_4039 variant S19C (SEQ ID NO:2805).
T2 chain: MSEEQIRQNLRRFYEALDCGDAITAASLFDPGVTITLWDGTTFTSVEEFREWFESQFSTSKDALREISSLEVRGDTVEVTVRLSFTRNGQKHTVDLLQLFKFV
In words: cell-based or functional assay.

Another test has as its target T3, MBIO-5341.
T3 chain: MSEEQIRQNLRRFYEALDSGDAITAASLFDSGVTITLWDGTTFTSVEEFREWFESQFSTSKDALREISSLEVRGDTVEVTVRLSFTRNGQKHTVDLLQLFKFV
In words: cell-based or functional assay.

The target of a further test is T4, MBIO-5337.
T4 chain: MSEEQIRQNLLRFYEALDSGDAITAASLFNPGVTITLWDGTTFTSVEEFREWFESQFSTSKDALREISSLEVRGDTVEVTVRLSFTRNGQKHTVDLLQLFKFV
In words: cell-based or functional assay.

The target of a further test is T5, MBIO-5335.
T5 chain: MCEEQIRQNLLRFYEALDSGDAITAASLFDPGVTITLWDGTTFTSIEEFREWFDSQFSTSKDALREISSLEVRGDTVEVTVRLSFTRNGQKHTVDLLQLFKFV
Description: cell-based or functional assay.

Test [3] deals with T6, LgLux_4039.
T6 chain: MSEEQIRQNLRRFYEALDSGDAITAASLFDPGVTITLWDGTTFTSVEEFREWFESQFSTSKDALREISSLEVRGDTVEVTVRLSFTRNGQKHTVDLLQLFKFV
In words: cell-based or functional assay.

For a further test, the target named is T7, MBIO-5340.
T7 chain: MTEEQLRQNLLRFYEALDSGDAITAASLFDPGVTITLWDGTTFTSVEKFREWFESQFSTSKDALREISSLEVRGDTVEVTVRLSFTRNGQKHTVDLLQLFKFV
Description: cell-based or functional assay.

A further test deals with T8, MBIO-5342.
T8 chain: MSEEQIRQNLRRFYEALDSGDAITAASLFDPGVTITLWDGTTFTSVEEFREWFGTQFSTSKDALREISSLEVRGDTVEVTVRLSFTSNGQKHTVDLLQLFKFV
Description: cell-based or functional assay.

The next test addresses T9, MBIO-5339.
T9 chain: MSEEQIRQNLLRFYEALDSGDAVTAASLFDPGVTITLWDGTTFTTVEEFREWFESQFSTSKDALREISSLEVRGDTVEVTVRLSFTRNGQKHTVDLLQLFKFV
In words: cell-based or functional assay.

The target of the next test is T10, MBIO-5336.
T10 chain: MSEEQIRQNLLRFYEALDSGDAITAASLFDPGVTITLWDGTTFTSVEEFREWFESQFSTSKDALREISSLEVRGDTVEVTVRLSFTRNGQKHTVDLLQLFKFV
Description: cell-based or functional assay.

For test [4], the target named is T6, LgLux_4039. In words: cell-based or functional assay.
Test [5] is described as follows: Luciferase activity of circularly permuted LuxSit-i variants. The test is classed as biochemical. Particulars: circularly permuted proteins; 5 nM protein, 10 μM DTZ. As for the experimental part:
FIG. 6A provides kinetic profile over one hour of circularly permuted LuxSit-i variants. Variants were diluted in PBS and combined 1:1 with DTZ substrate, resulting in final in-well concentrations of 5 nM protein/variant and 10 μM DTZ.
Variants were diluted in PBS and combined 1:1 with DTZ substrate, resulting in final in-well concentrations of 5 nM protein and 10 μM DTZ.

Where two headings read alike, the source gives them in different places.

In the case of `O=c1c(Cc2ccccc2)nc2c(-c3ccccc3)[nH]c(-c3ccccc3)cn1-2` [DTZ, Diphenylterazine, reference compound], the “Fold Change with Rapamycin Addition at Initial Read” value (shortened to “Fold Change with Rapamycin Addition”) in test [1] is on record as 58.4.

On to `c1c[nH]cn1` [Imidazole], for which the “brightness of LuxSit” value in the test with LuxSit is “increased”.

Consider `O=c1c(Cc2ccccc2)nc2c(-c3ccc(F)cc3)[nH]c(-c3ccccc3)cn1-2` [2d], for which, in test [1], the “Fold Change with Rapamycin Addition” value was 46.2.

With `O=c1c(Cc2ccccc2)nc2c(-c3ccccc3)[nH]c(-c3ccc(O)cc3)cn1-2` [1c], the “Fold Change with Rapamycin Addition” value in test [1] was 116.8.

On to `O=c1c(Cc2ccccc2)nc2c(-c3cccnc3)[nH]c(-c3ccccc3)cn1-2` [2p], for which, in [1], the “Fold Change with Rapamycin Addition” value was determined as 17.1.

Consider RVVAVRVYVNPTG [SmLux_4039], for which the “Baseline Signal (Normalized by expression)” value came to 18900 in the test with MBIO-5338; 3670 in [2]; 10400 with MBIO-5341; 14900 with MBIO-5337; 23800 with MBIO-5335; 22100 with LgLux_4039 [3]. For the same molecule, the “Baseline Signal (Normalized by expression)” value in the test with MBIO-5340 came out at 6670; with MBIO-5342, 3360; in the test with MBIO-5339, 28300; with MBIO-5336, 16400; with LgLux_4039 [4] it was 123000. Moreover, the “Fold change upon Rap addition” value amounted to 2.2 fold with MBIO-5338; 2 fold in test [2]; 2.2 fold with MBIO-5341; 2.1 fold with MBIO-5337; 1.9 fold with MBIO-5335; 1.9 fold in the test with LgLux_4039 [3]. Besides, the “Fold change upon Rap addition” value with MBIO-5340 came to 2.2 fold; with MBIO-5342 it was 2 fold; in the test with MBIO-5339 it was 1.9 fold; with MBIO-5336, 2.1 fold; with LgLux_4039 [4], 1.5 fold.

B1: SEQ ID NO 2236: circularly permuted protein from MBIO-148, inpaint length 32 (protein)
chain: GQKHVVVLVHTFRFRGNRVTEVRVEIIPAPSLDEESIEARVAEARRLAEERLAELGDPPPSISEEQIRQFLRRFYEALDSGDADTAASLFHPGVTIHLWDGVTFTSREEFREWFERLFSTSKDAWREIVELRVRGDTVVVVVVLHFTLN
B1: the “luciferase activity compared to SEQ ID NO:2600” value in test [5] was “similar”.

B2: SEQ ID NO 2227: circularly permuted protein from MBIO-148, inpaint length 32 (protein)
chain: GQKHVVVLVHTFRFRGNRVTEVEVEIIPCPSLDEASIAAAIAEAEALAAERLAELGAPPPSISEEQIRQFLRRFYEALDSGDADTAASLFHPGVTIHLWDGVTFTSREEFREWFERLFSTSKDAWREIVSLRVVGDTVVVVVVLHFTLN
For the molecule B2, the “luciferase activity compared to SEQ ID NO:2600” value in test [5] was “similar”.
